Laboratory results from patent US20170166624A1 (University of Texas, published 2017).
Several values for one entry are separate records, joined by “and”; a condition that tells them apart may be missing. Identical values can stand only once.

B1: RII-RIII (REU) fusion (other)
chain: AAANGAVKFPQLCKFCDVRFSTCDNQKSCMSNCSITSICEKPQEVCVAVWRKNDENITLETVCHDPKLPYHDFILEDAASPKCIMKEKKKPGETFFMCSCSSDECNDNIIFSEEYNTSNPDGLGPVESSPGHGLDTAAACELSPINASHPVQALMESFTVLSGCASRGTTGLPREVHVLNLRSTDQGPGQRQREVTLHLNPIASVHTHHKPIVFLLNSPQPLVWHLKTERLAAGVPRLFLVSEGSVVQFPSGNFSLTAETEERNFPQENEHLLRWAQKEYGAVTSFTELKIARNIYIKVGEDQVFPPTCNIGKNFLSLNYLAEYLQPKAAEGCVLPSQPHEKEVHIIELITPSSNPYSAFQVDIIVDIRPAQEDPEVVKNLVLILKCKKSVNWVIKSFDVKGNLKVIAPNSIGFGKESERSMTMTKLVRDDIPSTQENLMKWALDNGYRPVTSYTMAPVANRFHLRLENNEEMRDEEVHTIPPELRILLDPDHPPALDNPLFPGEGSPNGGLPFPFPDIPRRGWKEGEDRIPRPKQPIVPSVQLLPDHREPEEVQGGVDIALSVKCDHEKMVVAVDKDSFQTNGYSGMELTLLDPSCKAKMNGTHFVLESPLNGCGTRHRRSTPDGVVYYNSIVVQAPSPGDSAGWPDGYEDLEAGDNGFPGDGDEGETAPLSRAGVVVFNCSLRQLRNPSGFQGQLDGNATFNMELYNTDLFLVPSPGVFSVAENEHVYVEVSVTKADQDLGFAIQTCFLSPYSNPDRMSDYTIIENICPKDDSVKFYSSKRVHFPIPHAEVDKKRFSFLFKSVFNTSLLFLHCELTLCSRKKGSLKLPRCVTPDDACTSLDATMIWTMMQNKKTFTKPLAVVLQVD
B2: purified TGF-β type III receptor ectodomain (RIII) (receptor)
chain: CELSPINASHPVQALMESFTVLSGCASRGTTGLPREVHVLNLRSTDQGPGQRQREVTLHLNPIASVHTHHKPIVFLLNSPQPLVWHLKTERLAAGVPRLFLVSEGSVVQFPSGNFSLTAETEERNFPQENEHLLRWAQKEYGAVTSFTELKIARNIYIKVGEDQVFPPTCNIGKNFLSLNYLAEYLQPKAAEGCVLPSQPHEKEVHIIELITPSSNPYSAFQVDIIVDIRPAQEDPEVVKNLVLILKCKKSVNWVIKSFDVKGNLKVIAPNSIGFGKESERSMTMTKLVRDDIPSTQENLMKWALDNGYRPVTSYTMAPVANRFHLRLENNEEMRDEEVHTIPPELRILLDPDHPPALDNPLFPGEGSPNGGLPFPFPDIPRRGWKEGEDRIPRPKQPIVPSVQLLPDHREPEEVQGGVDIALSVKCDHEKMVVAVDKDSFQTNGYSGMELTLLDPSCKAKMNGTHFVLESPLNGCGTRHRRSTPDGVVYYNSIVVQAPSPGDSAGWPDGYEDLEAGDNGFPGDGDEGETAPLSRAGVVVFNCSLRQLRNPSGFQGQLDGNATFNMELYNTDLFLVPSPGVFSVAENEHVYVEVSVTKADQDLGFAIQTCFLSPYSNPDRMSDYTIIENICPKDDSVKFYSSKRVHFPIPHAEVDKKRFSFLFKSVFNTSLLFLHCELTLCSRKKGSLKLPRCVTPDDACTSLDATMIWTMMQNKKTFTKPLAVVLQVD
notes: EU was made in CHO Lec 3.2.8.1 cells and purified on NiNTA, which implies a His tag that is not explicitly stated for EU; also called EU; RIII (EU)
B3: purified TGF-β type II receptor ectodomain (RII) (receptor)
chain: NGAVKFPQLCKFCDVRFSTCDNQKSCMSNCSITSICEKPQEVCVAVWRKNDENITLETVCHDPKLPYHDFILEDAASPKCIMKEKKKPGETFFMCSCSSDECNDNIIFSEEYNTSNPD

How the values were obtained:
TGF-β3 = biological target: T1, TGF-β3 (UniProt P10600 301-412); test: SPR competition, receptor with 0.8 nM TGF-β3 over immobilized 1D11
T1 sequence (looked up): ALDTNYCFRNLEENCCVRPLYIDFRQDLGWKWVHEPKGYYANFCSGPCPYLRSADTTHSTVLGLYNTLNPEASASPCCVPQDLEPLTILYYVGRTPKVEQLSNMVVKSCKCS
Protocol: FIG. 6. SPR competition binding data in which increasing concentrations of RII (R), RIII (EU), and RII-RIII (REU) were pre-incubated with 0.8 nM TGF-β3 for 16 h and then injected over a high-density (20000 RU) SPR surface with the TGF-β monoclonal antibody 1D11. Data is presented in terms of the initial slope (which is directly proportional to the concentration of the free TGF-β3 concentration) as a function of the competitor (R, EU, or REU) concentration. Two independent measurements were performed for each of the receptor constructs studied (designated by −a and −b in the legend).
The initial slope of these sensorgrams, which is a linear function of the free TGF-β3 concentration, was then plotted as a function of the concentration of RII, RIII (EU), or RII-RIII (REU) (FIG. 6).

[1] = biological target: T2, TGF-β2 K25R I92V K94R (TGF-β2TM) (UniProt P61812 303-414, K25R; I92V; K94R); test: SPR, receptor injected over immobilized TGF-β2TM
T2 construct: mature
T2 sequence (looked up): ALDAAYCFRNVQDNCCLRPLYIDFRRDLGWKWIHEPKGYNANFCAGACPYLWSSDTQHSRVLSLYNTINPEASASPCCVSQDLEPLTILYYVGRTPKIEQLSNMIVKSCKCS
Protocol: (§1) FIG. 2. RII (R) and RIII (EU) form a 1:1:1 complex with TGF-β homodimers. (a) SPR sensorgrams in which increasing concentrations of RII and RIII were injected over a SPR sensor surface with immobilized TGF-β2TM. Mass normalized sensorgrams are shown in panels on the left. Plots of the mass normalized equilibrium response (Req) as a function of receptor concentration ([Receptor]), along with fits to Req=(Rₘₐₓ×[Receptor])/(Kd+[Receptor]), are shown on the right.
The TGF-β type III receptor binds TGF-β dimers with 1:1 stoichiometry. This was shown by comparing the maximal mass-normalized SPR response as increasing concentrations of the purified TGF-β type II receptor ectodomain (RII) and purified TGF-β type III receptor ectodomain (RIII) were injected over immobilized TGF-β2 K25R I92V K94R (TGF-β2TM), a variant of TGF-β2 that binds RII with high affinity (Baardsnes et al, 2009, Biochemistry, 48, 2146-2155; De Crescenzo et al, 2006, J Mol Biol, 355, 47-62).

[2] = biological target: T2, TGF-β2 K25R I92V K94R (TGF-β2TM); test: SDS-PAGE densitometry of the SEC-isolated complex (TGF-β2TM 51.6 pmol)
Source text: RII:RIII:TGF-β2TM form a stable non-disassociating 1:1:1 complex in solution. […] The mixture was applied to a Superdex 200 size exclusion chromatography column and the UV absorbance of the column eluate at 280 nm was monitored. […] To determine the stoichiometry of the complex, a sample of the isolated RII:RIII:TGFβ2-TM complex was run on an SDS-PAGE gel along with known amounts of the individual components (FIG. 3d).

[3] = biological target: T2, TGF-β2 K25R I92V K94R (TGF-β2TM); test: SPR, RII injected over immobilized TGF-β2TM with or without 80 nM RIII (competitor RIII)
Protocol: as §1
The TGF-β type III receptor potentiates the binding of the TGF-β type II receptor, but reduces its binding stoichiometry to one per TGF-β homodimer. This was shown by performing SPR experiments in which increasing concentrations of RII were injected over immobilized TGF-β2TM in the absence or presence of a saturating concentration of RIII (80 nM) (FIG. 2b).

| Binder | decrease of EC50 relative to RII or RIII (EU) (TGF-β3) | maximal mass-normalized response relative to that of RII [1] | amount in the isolated RII:RIII:TGF-β2TM complex [2] [pmol] | fold reduction of the maximal mass normalized binding response in the presence of 80 nM RIII [3] [fold] |
| --- | --- | --- | --- | --- |
| B1 | ≥ 0.5 log units and ~3 fold |  |  |  |
| B2 |  | ~0.5 fold (ratio to RII) | 62.4 |  |
| B3 |  |  | 61.8 | 2 |
